Assay results published in patent publication US20220243288, “BIOSENSORS FOR POLYKETIDE EXTENDER UNITS AND USES THEREOF” (NORTH CAROLINA STATE UNIVERSITY, published 2022).

Molecular target: T1, FapR (Bacillus subtilis, UniProt O34835 SEQ:1-188)
T1 sequence: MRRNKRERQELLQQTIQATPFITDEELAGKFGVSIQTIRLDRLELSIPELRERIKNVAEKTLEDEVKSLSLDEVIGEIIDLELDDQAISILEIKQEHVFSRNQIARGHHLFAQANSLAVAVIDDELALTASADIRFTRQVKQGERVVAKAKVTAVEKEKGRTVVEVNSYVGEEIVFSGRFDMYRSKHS
Experiment: EMSA; near-complete shift; 2 pmol fapO, 6 pmol FapR (text also says two-fold excess); 10 mM Tris pH 7.5, 100 mM KCl, 30 C; released by 200 uM malonyl-CoA or methylmalonyl-CoA
Details: tags: C-terminal His6 (pET28a); chain copies: 2
From the text: The saturated alkyl derivatives emCoA and bmCoA were the poorest effectors, based on the fluorescence data. This robust activity of pgmCoA is due in part to the increased rigidity of the alkyne side-chain or additional interactions of the alkynyl […] with the FapR ligand-binding site, with the […] side-chain of the nearby Phe99 (FIG. 5A). Gratifyingly, de-repression was not observed in the presence of propionyl-CoA and was indistinguishable from the (−) thioester control. To provide further evidence that FapR is de-repressed by derivatives of mCoA, FapR was tested in vitro for DNA-binding and release by electrophoretic mobility shift assay (EMSA) in the presence of mCoA or mmCoA. Using purified wild-type FapR protein, EMSA was run with a 40 bp DNA fragment containing the fapO binding site (FIG. 7). […] Incubation with the FapR-fapO complex with mmCoA achieved a similar level of de-repression as that observed with mCoA (FIG. 7).
Electrophoretic mobility shift assay. The fapO oligonucleotides 5′-[…]-3′ (SEQ ID NO:30) and 5′-[…]-3′ (SEQ ID NO:31) were annealed per standard procedure. […] Reactions were then analyzed by electrophoresis on a 6% PAGE gel at 220 V. The gel was stained with SYBR Green I and imaged on a Typhoon FLA 7000.

B1: 40 bp fapO fragment (dsDNA)
DNA 1: CCTAGGACTATTAGTACCTAGTCTTAATTGTCCGGCATCC
DNA 2: GGATGCCGGACAATTAAGACTAGGTACTAATAGTCCTAGG
Does B1 bind?
Result: binds
